We go through 4 proteins from article PMC9898670, “A solution structure analysis reveals a bent collagen triple helix in the complement activation recognition molecule mannan-binding lectin” (The Journal of Biological Chemistry, 2022).

Non-standard residues stand in square brackets, D forms with d. Hyp = O=C(O)[C@@H]1C[C@@H](O)CN1

Data set [1] concerns the molecule itself. In words: AUC; sedimentation velocity, 50,000 rpm, 20 °C, 137 mM PBS pH 7.4 or 20 mM L-histidine pH 6.0 in H2O (10 peptides, 0.2-2.5 mg/ml) and 20 mM L-histidine in 2H2O (six peptides, 0.75-4 mg/ml); c(s) analysis with SEDFIT; peptides equilibrated for at least 48 h at room temperature to assemble into triple helices.
Data set [2] concerns the molecule itself. Put plainly: circular dichroism; spectra 190-260 nm and melting curves at 226 nm from 0 to 70 °C, average heating rate 0.1 °C/min. On the technique in general: CD spectra are sensitive to the conformation of chiral molecules.

B1: MBL-E (MBL EOG) collagen peptide, Ac-(POG)5-EOGQGLRG-(POG)3-NH2 (peptide)
peptide: Ac-P[Hyp]GP[Hyp]GP[Hyp]GP[Hyp]GP[Hyp]GE[Hyp]GQGLRGP[Hyp]GP[Hyp]GP[Hyp]G-NH2
SMILES: CC(=O)N1CCC[C@H]1C(=O)N1C[C@H](O)C[C@H]1C(=O)NCC(=O)N1CCC[C@H]1C(=O)N1C[C@H](O)C[C@H]1C(=O)NCC(=O)N1CCC[C@H]1C(=O)N1C[C@H](O)C[C@H]1C(=O)NCC(=O)N1CCC[C@H]1C(=O)N1C[C@H](O)C[C@H]1C(=O)NCC(=O)N1CCC[C@H]1C(=O)N1C[C@H](O)C[C@H]1C(=O)NCC(=O)N[C@@H](CCC(=O)O)C(=O)N1C[C@H](O)C[C@H]1C(=O)NCC(=O)N[C@@H](CCC(N)=O)C(=O)NCC(=O)N[C@@H](CC(C)C)C(=O)N[C@@H](CCCNC(=N)N)C(=O)NCC(=O)N1CCC[C@H]1C(=O)N1C[C@H](O)C[C@H]1C(=O)NCC(=O)N1CCC[C@H]1C(=O)N1C[C@H](O)C[C@H]1C(=O)NCC(=O)N1CCC[C@H]1C(=O)N1C[C@H](O)C[C@H]1C(=O)NCC(N)=O
notes: (POG)5 written out; (POG)3 written out; Homotrimeric collagen triple helix; form used in AUC, SAXS and SANS; The CD and DSC runs used a form with one POG triplet fewer
Turning to B1, the binding result in data set [1] is listed as “binds”.

B2: MBL-12 (12 triplets) collagen peptide, Ac-(POG)5-EPGQGLRG-(POG)5-NH2 (peptide)
peptide: Ac-P[Hyp]GP[Hyp]GP[Hyp]GP[Hyp]GP[Hyp]GEPGQGLRGP[Hyp]GP[Hyp]GP[Hyp]GP[Hyp]GP[Hyp]G-NH2
SMILES: CC(=O)N1CCC[C@H]1C(=O)N1C[C@H](O)C[C@H]1C(=O)NCC(=O)N1CCC[C@H]1C(=O)N1C[C@H](O)C[C@H]1C(=O)NCC(=O)N1CCC[C@H]1C(=O)N1C[C@H](O)C[C@H]1C(=O)NCC(=O)N1CCC[C@H]1C(=O)N1C[C@H](O)C[C@H]1C(=O)NCC(=O)N1CCC[C@H]1C(=O)N1C[C@H](O)C[C@H]1C(=O)NCC(=O)N[C@@H](CCC(=O)O)C(=O)N1CCC[C@H]1C(=O)NCC(=O)N[C@@H](CCC(N)=O)C(=O)NCC(=O)N[C@@H](CC(C)C)C(=O)N[C@@H](CCCNC(=N)N)C(=O)NCC(=O)N1CCC[C@H]1C(=O)N1C[C@H](O)C[C@H]1C(=O)NCC(=O)N1CCC[C@H]1C(=O)N1C[C@H](O)C[C@H]1C(=O)NCC(=O)N1CCC[C@H]1C(=O)N1C[C@H](O)C[C@H]1C(=O)NCC(=O)N1CCC[C@H]1C(=O)N1C[C@H](O)C[C@H]1C(=O)NCC(=O)N1CCC[C@H]1C(=O)N1C[C@H](O)C[C@H]1C(=O)NCC(N)=O
notes: (POG)5 written out; Homotrimeric collagen triple helix
For B2, the binding result in data set [2] is given as “binds”.

B3: T3-785 collagen peptide, Ac-(POG)3-ITGARGLAGPOG-(POG)3-NH2 (peptide)
peptide: Ac-P[Hyp]GP[Hyp]GP[Hyp]GITGARGLAGP[Hyp]GP[Hyp]GP[Hyp]GP[Hyp]G-NH2
SMILES: CC[C@H](C)[C@H](NC(=O)CNC(=O)[C@@H]1C[C@@H](O)CN1C(=O)[C@@H]1CCCN1C(=O)CNC(=O)[C@@H]1C[C@@H](O)CN1C(=O)[C@@H]1CCCN1C(=O)CNC(=O)[C@@H]1C[C@@H](O)CN1C(=O)[C@@H]1CCCN1C(C)=O)C(=O)N[C@H](C(=O)NCC(=O)N[C@@H](C)C(=O)N[C@@H](CCCNC(=N)N)C(=O)NCC(=O)N[C@@H](CC(C)C)C(=O)N[C@@H](C)C(=O)NCC(=O)N1CCC[C@H]1C(=O)N1C[C@H](O)C[C@H]1C(=O)NCC(=O)N1CCC[C@H]1C(=O)N1C[C@H](O)C[C@H]1C(=O)NCC(=O)N1CCC[C@H]1C(=O)N1C[C@H](O)C[C@H]1C(=O)NCC(=O)N1CCC[C@H]1C(=O)N1C[C@H](O)C[C@H]1C(=O)NCC(N)=O)[C@@H](C)O
notes: (POG)3 written out; Homotrimeric collagen triple helix; also called Type III T3-785 peptide
With B3, in data set [1], the binding result is “binds”.

B4: MBL-N (MBL native) collagen peptide, Ac-(POG)4-EPGQGLRG-(POG)3-NH2 (peptide)
peptide: Ac-P[Hyp]GP[Hyp]GP[Hyp]GP[Hyp]GEPGQGLRGP[Hyp]GP[Hyp]GP[Hyp]G-NH2
SMILES: CC(=O)N1CCC[C@H]1C(=O)N1C[C@H](O)C[C@H]1C(=O)NCC(=O)N1CCC[C@H]1C(=O)N1C[C@H](O)C[C@H]1C(=O)NCC(=O)N1CCC[C@H]1C(=O)N1C[C@H](O)C[C@H]1C(=O)NCC(=O)N1CCC[C@H]1C(=O)N1C[C@H](O)C[C@H]1C(=O)NCC(=O)N[C@@H](CCC(=O)O)C(=O)N1CCC[C@H]1C(=O)NCC(=O)N[C@@H](CCC(N)=O)C(=O)NCC(=O)N[C@@H](CC(C)C)C(=O)N[C@@H](CCCNC(=N)N)C(=O)NCC(=O)N1CCC[C@H]1C(=O)N1C[C@H](O)C[C@H]1C(=O)NCC(=O)N1CCC[C@H]1C(=O)N1C[C@H](O)C[C@H]1C(=O)NCC(=O)N1CCC[C@H]1C(=O)N1C[C@H](O)C[C@H]1C(=O)NCC(N)=O
notes: (POG)4 written out; (POG)3 written out; Homotrimeric collagen triple helix
On to B4, for which the binding result in data set [2] is “binds”.
